# Data published in IntAct's records for PubMed 22842346.
# B1: High mobility group protein B1 (Mus musculus), P63158 (parent)
# chain: MGKGDPKKPRGKMSSYAFFVQTCREEHKKKHPDASVNFSEFSKKCSERWKTMSAKEKGKFEDMAKADKARYEREMKTYIPPKGETKKKFKDPNAPKRPPSAFFLFCSEYRPKIKGEHPGLSIGDVAKKLGEMWNNTAADDKQPYEKKAAKLKEKYEKDIAAYRAKGKPDAAKKGVVKAEKSKKKKEEEDDEEDEEDEEEEEEEEDEDEEEDDDDE
# Variants of: B1
# Details: with havr2_mouse Havcr2, Q8VIM0
# Sequence of havr2_mouse Havcr2, Q8VIM0 (Q8VIM0 whole entry): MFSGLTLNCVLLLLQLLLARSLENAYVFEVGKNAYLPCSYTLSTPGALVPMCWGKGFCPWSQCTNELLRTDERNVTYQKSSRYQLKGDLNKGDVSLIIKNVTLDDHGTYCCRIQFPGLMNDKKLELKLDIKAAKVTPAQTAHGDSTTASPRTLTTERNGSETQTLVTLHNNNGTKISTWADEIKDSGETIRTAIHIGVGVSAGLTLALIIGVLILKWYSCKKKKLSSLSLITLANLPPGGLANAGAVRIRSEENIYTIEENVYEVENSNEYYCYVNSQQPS
row,Variant,effect of a mutation on the interaction
1,D62A,decreasing interaction
